Test results as given in article PMC10397247.

Columns and labels:
Test in all cases: two-hybrid library CCNG1;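 note: natural log of median RNA to DNA barcode read ratio; higher means stronger binding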
[1] = biological target: T1, P7A-bH
T1 chain: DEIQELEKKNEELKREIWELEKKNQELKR

[2] = biological target: T2, P6A-bH
T2 chain: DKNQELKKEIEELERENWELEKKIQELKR

[3] = biological target: T3, P2A-bH
T3 chain: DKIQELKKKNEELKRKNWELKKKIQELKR

[4] = biological target: T4, P8A-bH
T4 chain: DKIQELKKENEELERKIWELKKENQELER

[5] = biological target: T5, P4A-bH
T5 chain: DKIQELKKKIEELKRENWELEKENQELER

[6] = biological target: T6, P3A-bH
T6 chain: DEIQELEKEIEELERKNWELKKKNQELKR

[7] = biological target: T7, P5A-bH
T7 chain: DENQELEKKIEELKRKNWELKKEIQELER

[8] = biological target: T8, P12A-bH
T8 chain: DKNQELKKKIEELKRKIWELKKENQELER

[9] = biological target: T9, P9A-bH
T9 chain: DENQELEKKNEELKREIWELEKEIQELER

[10] = biological target: T10, P1A-bH
T10 chain: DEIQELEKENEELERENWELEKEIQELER

- interaction score [1]: -0.514
- interaction score [2]: 0.389
- interaction score [3]: -1.23
- interaction score [4]: 0.274
- interaction score [5]: -0.357
- interaction score [6]: 1.64
- interaction score [7]: -2.21
- interaction score [8]: -0.588
- interaction score [9]: 0.667
- interaction score [10]: 0.256
Binder: DKNQELKKKIEELKRKIWELKKENQELER [P12A-bH]
